Measured values from the Immune Epitope Database (IEDB).

Experiments:
HLA-A*24:03 = test: IEDB peptide-MHC binding, purified MHC/direct/fluorescence; filed as Kd, often an IC50 or EC50 that approximates it; ≥ and ≤ were set here for values at or beyond the usual limits of such assays; details: source organism: Amur virus
HLA-A*68:02 = test: IEDB peptide-MHC binding, purified MHC/competitive/radioactivity; filed as Kd, often an IC50 or EC50 that approximates it; ≥ and ≤ were set here for values at or beyond the usual limits of such assays
HLA-A*11:01 [1] = test: IEDB peptide-MHC binding, purified MHC/competitive/fluorescence; ≥ and ≤ were set here for values at or beyond the usual limits of such assays
HLA-A*03:01 [2] = test: as above
HLA-A*29:02 = test: IEDB peptide-MHC binding, purified MHC/competitive/fluorescence; filed as Kd, often an IC50 or EC50 that approximates it; ≥ and ≤ were set here for values at or beyond the usual limits of such assays
HLA-B*44:02 = test: IEDB peptide-MHC binding, purified MHC/direct/fluorescence; filed as Kd, often an IC50 or EC50 that approximates it; ≥ and ≤ were set here for values at or beyond the usual limits of such assays; details: source organism: Influenza A virus (A/chicken/CA/375TR/2002(H6N2))
HLA-B*18:01 = test: as above
HLA-B*40:01 = test: as above
HLA-A*24:02 = test: IEDB peptide-MHC binding, purified MHC/competitive/fluorescence; ≥ and ≤ were set here for values at or beyond the usual limits of such assays
HLA-A*02:01 [3] = test: as above
HLA-A*26:01 [4] = test: IEDB peptide-MHC binding, purified MHC/direct/fluorescence; filed as Kd, often an IC50 or EC50 that approximates it; ≥ and ≤ were set here for values at or beyond the usual limits of such assays; details: source organism: Mammarenavirus amapariense
HLA-B*08:01 = test: as above; details: source organism: Yersinia pestis CA88-4125
HLA-B*48:01 = test: as above; details: source organism: Giardia lamblia ATCC 50803
HLA-A*11:01 [5] = test: IEDB peptide-MHC binding, purified MHC/competitive/radioactivity; filed as Kd, often an IC50 or EC50 that approximates it; ≥ and ≤ were set here for values at or beyond the usual limits of such assays; details: source organism: Vaccinia virus Copenhagen
HLA-B*35:01 = test: as above
HLA-A*02:02 = test: as above
HLA-A*03:01 [6] = test: as above; details: source organism: Vaccinia virus Copenhagen
HLA-B*54:01 = test: as above
HLA-B*07:02 = test: as above
HLA-B*51:01 = test: as above
HLA-A*02:03 = test: as above
HLA-A*31:01 = test: as above; details: source organism: Vaccinia virus Copenhagen
HLA-A*33:01 = test: as above; details: source organism: Vaccinia virus Copenhagen
HLA-A*68:01 = test: as above; details: source organism: Vaccinia virus Copenhagen
HLA-B*53:01 = test: as above
HLA-A*02:06 = test: as above
HLA-A*26:01 [7] = test: as above; details: source organism: Dengue virus 4 Philippines/H241/1956
HLA-A*02:01 [8] = test: as above; details: source organism: Trypanosoma cruzi
[9] = source organism: Dengue virus 4 Philippines/H241/1956
[10] = source organism: Zaire ebolavirus
[11] = source organism: Influenza A virus (A/chicken/CA/375TR/2002(H6N2))
[12] = source organism: Dengue virus 2 Jamaica/1409/1983
[13] = source organism: Dengue virus 1 Brazil/97-11/1997
[14] = source organism: Francisella tularensis subsp. holarctica LVS
[15] = source organism: Vaccinia virus Copenhagen
[16] = source organism: Sudan ebolavirus
[17] = source organism: Burkholderia ambifaria AMMD
[18] = source organism: Trypanosoma cruzi
[19] = source organism: Vaccinia virus WR
[20] = source organism: SARS coronavirus Tor2

MHTDLELDF
Kd (HLA-A*24:03): 4.85 µM

EVLTLATGPV
Kd (HLA-A*68:02; [9]): 0.0235 µM

VTGILQLPR
IC50 (HLA-A*11:01 [1]; [10]): 0.36 µM | IC50 (HLA-A*03:01 [2]; [10]): 6.83 µM

MTIHFFLNE
Kd (HLA-A*29:02; source organism: Entamoeba histolytica HM-1:IMSS): 0.192 µM

SGTEKEFLR
IC50 (HLA-A*11:01 [1]; source organism: Vaccinia virus): ≥ 412 µM

REITFHGAK
Kd (HLA-B*44:02): ≥ 20 µM | Kd (HLA-B*18:01; [11]): 1.22 µM | Kd (HLA-B*40:01; [11]): 0.412 µM

LLPAVSSGK
IC50 (HLA-A*11:01 [1]; [10]): 3.64 µM | IC50 (HLA-A*24:02; [10]): ≥ 79.6 µM | IC50 (HLA-A*03:01 [2]; [10]): 1.9 µM | IC50 (HLA-A*02:01 [3]; [10]): ≥ 73.6 µM

CSAVPSHWV
Kd (HLA-A*68:02; [12]): 0.00921 µM

YKLDISEAT
IC50 (HLA-A*11:01 [1]; [10]): ≥ 139 µM | IC50 (HLA-A*24:02; [10]): 29.8 µM | IC50 (HLA-A*02:01 [3]; [10]): ≥ 158 µM

EKPGNRNPY
Kd (HLA-A*26:01 [4]): 2.78 µM

DEYQGNHMF
Kd (HLA-B*18:01; source organism: Vibrio parahaemolyticus): 0.0006 µM

SMKTRTAWF
Kd (HLA-B*08:01): 0.007 µM

NLPIYSEEIV
Kd (HLA-A*68:02; source organism: Homo sapiens): 0.982 µM

GSIGGVFTSV
Kd (HLA-A*68:02; [13]): 0.0201 µM

KFYSKISEY
IC50 (HLA-A*03:01 [2]; source organism: Human papillomavirus 16): 3 µM

AEVCAHHLF
Kd (HLA-B*18:01; [14]): 0.0036 µM | Kd (HLA-B*40:01; [14]): 0.0035 µM

KLYKNKSKQ
IC50 (HLA-A*11:01 [1]; [15]): ≥ 1360 µM | IC50 (HLA-A*03:01 [2]; [15]): 3.01 µM | IC50 (HLA-A*02:01 [3]; [15]): ≥ 81.8 µM

NTPEGIIPAL
Kd (HLA-A*68:02; [13]): 0.0205 µM

TSHNILVEV
Kd (HLA-A*68:02; [13]): 0.00742 µM

GLRKRSRRQ
IC50 (HLA-A*03:01 [2]; [16]): 46.4 µM

AEWGWTATM
Kd (HLA-B*48:01): ≥ 20 µM

GLSLLQLPR
IC50 (HLA-A*11:01 [1]; [16]): 3.53 µM | IC50 (HLA-A*03:01 [2]; [16]): 2.19 µM | IC50 (HLA-A*02:01 [3]; [16]): 16.8 µM

LIWTLDANI
IC50 (HLA-A*11:01 [1]; [16]): ≥ 166 µM | IC50 (HLA-A*24:02; [16]): ≥ 80.4 µM | IC50 (HLA-A*02:01 [3]; [16]): 0.48 µM

STSDGKHLQ
Kd (HLA-A*29:02; source organism: Cryptosporidium parvum Iowa II): 0.284 µM

LVAFLRFLTI
Kd (HLA-A*68:02; [12]): 0.103 µM

LMDSIFVST
Kd (HLA-A*11:01 [5]): ≥ 77.9 µM | Kd (HLA-B*35:01; [15]): ≥ 77.4 µM | Kd (HLA-A*02:02; [15]): 0.000343 µM | Kd (HLA-A*03:01 [6]): ≥ 78 µM | Kd (HLA-B*54:01; [15]): 5.2 µM | Kd (HLA-B*07:02; [15]): ≥ 77.5 µM | Kd (HLA-B*51:01; [15]): ≥ 77.5 µM | Kd (HLA-A*02:03; [15]): 0.232 µM | Kd (HLA-A*31:01): ≥ 36 µM | Kd (HLA-A*33:01): ≥ 55.3 µM | Kd (HLA-A*68:01): ≥ 77.7 µM | Kd (HLA-B*53:01; [15]): ≥ 78.2 µM | Kd (HLA-A*68:02; [15]): 1.79 µM | Kd (HLA-A*02:06; [15]): 0.0312 µM

ETALMVIGM
Kd (HLA-A*26:01 [7]): 0.308 µM | Kd (HLA-A*68:02; [9]): 0.0105 µM

AELHAKGAY
Kd (HLA-B*18:01; [17]): 1.12 µM | Kd (HLA-B*40:01; [17]): ≥ 20 µM

STIGYALKH
Kd (HLA-A*29:02; source organism: Bacillus anthracis str. CDC 684): 0.0394 µM

NAICSAVPV
Kd (HLA-A*68:02; [13]): 0.00319 µM

LVGLWGAAAL
Kd (HLA-A*02:02; [18]): 0.0897 µM | Kd (HLA-A*02:03; [18]): 0.0959 µM | Kd (HLA-A*02:01 [8]): 0.689 µM | Kd (HLA-A*68:02; [18]): 5.25 µM | Kd (HLA-A*02:06; [18]): 0.397 µM

FTVVSNGAK
IC50 (HLA-A*11:01 [1]; [10]): 1.51 µM | IC50 (HLA-A*03:01 [2]; [10]): 17.7 µM

HSIENSSVNV
Kd (HLA-A*68:02; [12]): 0.0309 µM

LPTLFGRGV
Kd (HLA-B*35:01; [19]): 1.28 µM | Kd (HLA-B*54:01; [19]): 0.00199 µM | Kd (HLA-B*07:02; [19]): 0.00832 µM | Kd (HLA-B*51:01; [19]): 0.00604 µM | Kd (HLA-B*53:01; [19]): 0.956 µM

LPFHRWHTM
Kd (HLA-B*35:01; [20]): 0.00716 µM | Kd (HLA-B*54:01; [20]): 0.274 µM | Kd (HLA-B*07:02; [20]): 0.0084 µM | Kd (HLA-B*51:01; [20]): 0.0111 µM | Kd (HLA-B*53:01; [20]): 0.1 µM
